Experimental data published in patent publication US10765761B2, “Nucleic acid condensing peptide, nucleic acid condensing peptide set, nucleic acid delivery carrier, nucleic acid delivery method, cell production method, cell detection method and kit” (KABUSHIKI KAISHA TOSHIBA, priority 2016, dated 2020).

Experiments:
[1] = Average particle diameter and Zeta potential of liposome (zetasizer), Example 3; format: physicochemical
Experimental: (§1) COATSOME/SS-20 (Nippon Oil & Fats), DOPE, cholesterol and DMG-PEG were dissolved into ethanol at a molar ratio of 5:3:1:0.3, to obtain a lipid solution. Two sets of lipid solutions (0.5 ml) put into tubes were prepared, and 0.5 ml of peptide-nucleic-acid solutions (8) (mHP-1) and (16) (mHP-3) of Example 1 were dropped thereto while stirring each lipid solution, thereby forming liposomes. 9 ml of 10 mM-HEPES (pH: 5.3) was added to each of the liposome solutions to make a total amount of 10 ml (each liposome solution will be referred to as “Complex” hereinafter). Further, on an assumption that the liposome is taken into an organism, and liposome solutions (which will be referred to as “HEPES replacement”) in which ethanol, which is the solvent of Complex is substituted by HEPES were produced. The HEPES replacements were produced by condensing each solution of Complex to 1.5 ml with an ultrafiltration film for 300 kDa, adding 8.5 ml of 100 mM-HEPES (pH: 7.4) to each, performing ultrafiltration, thereafter substituting the solvent with 10 mM-HEPES (pH: 7.4), and finally condensing to 0.5 ml. Further, the HEPES replacements were filtered for sterilization with a filter with a pore diameter of 0.45 μm to prepare solutions (which will be referred to as “0.45 μm” hereinafter).
(§2) The “peptide-nucleic-acid solution”, “HEPES substituent” and “0.45 micrometer”, each of which contain the protamine, mHP-1 or mHP-3 prepared as above were examined in terms of average particle diameter of liposome, Zeta potential and amount of encapsulation of plasmid. The average particle diameter and Zeta potential were measured using a zetasizer. The amount of encapsulation of plasmid was measured using a Quant-iT PicoGreen (registered trademark) dsDNA assay kit.

plasmid = assay: Amount of encapsulation of plasmid in liposome (Quant-iT PicoGreen dsDNA assay kit), Example 3; format: physicochemical
Experimental: as §1, §2

[2] = test system: human normal mammary gland epithelial cells (HMEC); assay: Transfection of nucleic acid (pAmp-CMV-nLuc) into cells by liposome, luminescence imaging, Example 5; format: cell-based; conditions: 48 hours after addition of the liposome, NanoLuc (FIG. 10)
From the text: As nucleic acid to be encapsulated in the liposome, pAmp-CMV-nLuc was used. The pAmp-CMV-nLuc is a reporter vector which contains a NanoLuc gene as the reporter gene. The pAmp-CMV-nLuc includes a CMV promoter as a gene expression promoter, and in its lower stream, a NanoLuc gene, IRES sequence and a replication initiation protein (LT, large T antigen) gene of simian virus 40 (SV40) which are liked in this order, and further, in a lower stream, a replication initiation sequence (SV40 ori) of SV40. Using this nucleic acid, the protamine of Example 3 and the peptides of the mHP-1 and mHP-3, a liposome solution was produced by a method similar to that of Example 3.
The liposome solution prepared as above was added to human normal mammary gland epithelial cells (HMEC) (Kurabo Industries). The HMEC used here was prepared by reviving from an HMEC freeze stock and thereafter culturing in an incubator of a 5%-CO2 atmosphere at 37 degrees Celsius for six to seven days. […]
48 hours after the addition of the liposome, a luminescence substrate (Nano-Glo Luciferase Assay Substrate and Promega) was added to the culture medium to dilute to 1/2000. This culture dish was set to LV200 (a luminescence imaging system of Olympus) and photographed. […]

[3] = Average particle diameter, polydispersity index and Zeta potential of liposome (Complex), Example 8; format: physicochemical
Experimental: COATSOME/SS-20 (Nippon Oil & Fats), DOPE, cholesterol and DMG-PEG were dissolved into ethanol at a molar ratio of 5:3:1:0.3, to obtain a lipid solution. Five sets of 50 μL of lipid solutions put into tubes were prepared, and 50 μL of peptide-nucleic-acid solutions (1) to (4) and (7) of Example 6 were dropped thereto while stirring each lipid solution, thereby forming liposomes. 400 μL of 10 mM-HEPES (pH: 5.4) was added to each of the liposome solutions to make a total amount of 500 μL (this liposome solution will be referred to as “Complex” hereinafter).
The average particle diameter, polydispersity index and Zeta potential of liposome were investigated using the Complex. The average particle diameter, polydispersity index and Zeta potential were measured using a zetasizer.

Row | Sequence | Average particle diameter (zAve) ([1]; Peptide-nucleic acid solution) | Zeta potential ([1]; Peptide-nucleic acid solution) | Average particle diameter (zAve) ([1]; liposome, 0.45 μm filtered) | Zeta potential ([1]; liposome, 0.45 μm filtered) | Average particle diameter (zAve) ([1]; liposome, HEPES substitution) | Zeta potential ([1]; liposome, HEPES substitution) | Plasmid inclusion amount (plasmid; 0.45 μm filtered) | Plasmid inclusion amount (plasmid; HEPES substitution) | luminescent cells (reporter gene expressed) [2] | Average particle diameter (zAve) [3] | Polydispersity index (PDI) [3] | Zeta potential [3]
1 | RQRQRGGRRRRRR (Nucleic acid condensing peptide) [mHP-3] | 113.4 nm | −43.90 mV | 218.2 nm | −2.95 mV | 240.5 nm | −3.39 mV | 84.14 µg/mL | 96.94 µg/mL | luminescence was observed in more cells than those of the sample which used the protamine |  |  | 
2 | RQRQRYYRQRQRGGRRRRRR (Nucleic acid condensing peptide) [mHP-1] | 121.4 nm | −44.50 mV | 222.0 nm | −5.26 mV | 254.1 nm | −11.30 mV | 37.30 µg/mL | 42.12 µg/mL | luminescence was observed in most cells | 244.7 nm | 0.193 | 31.6 mV
